Reference: article PMC4673825, “Active site coupling in Plasmodium falciparum GMP synthetase is triggered by domain rotation” (Nature Communications, 2015)

What was measured:
N = experiment: purified protein; conditions: 2 mM ATP, 150 μM XMP, 20 mM MgCl2, pH 8.5, 25 °C
[1] = tested on: O=c1[nH]c(=O)c2ncn([C@@H]3O[C@H](COP(=O)(O)O)[C@@H](O)[C@H]3O)c2[nH]1; experiment: purified protein; assay type: biochemical, Plasmodium falciparum; conditions: 2 mM ATP, 5 mM Gln, 20 mM MgCl2, pH 8.5, 25 °C, Gln-dependent
PfATPPase = target: T1, PfATPPase (Plasmodium falciparum, UniProt Q8IJR9); experiment: ammonia-dependent GMP formation, absorbance decrease at […] nm; conditions: NH4Cl-dependent, 20 mM MgCl2, pH 8.5, 25 °C
T1 construct: gene GMPS
T1 sequence (Q8IJR9 237-555): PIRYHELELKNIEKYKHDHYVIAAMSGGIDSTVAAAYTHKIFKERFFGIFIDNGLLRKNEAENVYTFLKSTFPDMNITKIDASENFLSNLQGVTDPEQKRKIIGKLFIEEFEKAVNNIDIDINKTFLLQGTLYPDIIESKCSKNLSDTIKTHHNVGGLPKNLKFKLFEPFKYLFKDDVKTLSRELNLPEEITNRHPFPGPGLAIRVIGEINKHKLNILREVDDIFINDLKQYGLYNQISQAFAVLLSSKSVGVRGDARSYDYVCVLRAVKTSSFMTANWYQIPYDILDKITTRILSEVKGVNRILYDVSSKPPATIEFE

[2] = target: the molecule itself; experiment: SAXS; in solution, 1.1-11 mg/ml in 20 mM Tris pH 7.4, 50 mM NaCl; data at 11 mg/ml analysed; ab initio envelope superimposed on the dimer crystal structure
SAXS = target: the molecule itself; experiment: SAXS
purified protein [3] = substrate: N; experiment: purified protein; conditions: 20 mM MgCl2, pH 8.5, 25 °C
purified protein [4] = substrate: O=c1[nH]c(=O)c2ncn([C@@H]3O[C@H](COP(=O)(O)O)[C@@H](O)[C@H]3O)c2[nH]1; experiment: purified protein; conditions: NH4Cl-dependent, 20 mM MgCl2, pH 8.5, 25 °C
[5] = target: the molecule itself; experiment: SEC; analytical gel filtration, Superdex 200 HR 10/30, 50 mM Tris-HCl pH 7.4, 100 mM KCl; 100 μl of 20 μM protein, each injected individually

## PfGMPS (Plasmodium falciparum 3D7)
N
  Km: 19000 ± 1000 µM
  kcat: 0.917 s⁻¹
  kcat/Km: 48.3 M⁻¹ s⁻¹
[1]
  Km: 10 ± 2 µM
  kcat: 0.733 ± 0.0167 s⁻¹
  kcat/Km: 73300 M⁻¹ s⁻¹

## Nc1ncnc2c1ncn2[C@@H]1O[C@H](COP(=O)(O)OP(=O)(O)OP(=O)(O)O)[C@@H](O)[C@H]1O [ATP]
PfATPPase
  Km: 56 ± 16 µM

B1: Plasmodium falciparum GMP synthetase (PfGMPS), wild type (enzyme, UniProt Q8IJR9 1-555, looked up)
chain: MEGEEYDKILVLNFGSQYFHLIVKRLNNIKIFSETKDYGVELKDIKDMNIKGVILSGGPYSVTEAGSPHLKKEVFEYFLEKKIPIFGICYGMQEIAVQMNGEVKKSKTSEYGCTDVNILRNDNINNITYCRNFGDSSSAMDLYSNYKLMNETCCLFENIKSDITTVWMNHNDEVTKIPENFYLVSSSENCLICSIYNKEYNIYGVQYHPEVYESLDGELMFYNFAYNICKCKKQFDPIRYHELELKNIEKYKHDHYVIAAMSGGIDSTVAAAYTHKIFKERFFGIFIDNGLLRKNEAENVYTFLKSTFPDMNITKIDASENFLSNLQGVTDPEQKRKIIGKLFIEEFEKAVNNIDIDINKTFLLQGTLYPDIIESKCSKNLSDTIKTHHNVGGLPKNLKFKLFEPFKYLFKDDVKTLSRELNLPEEITNRHPFPGPGLAIRVIGEINKHKLNILREVDDIFINDLKQYGLYNQISQAFAVLLSSKSVGVRGDARSYDYVCVLRAVKTSSFMTANWYQIPYDILDKITTRILSEVKGVNRILYDVSSKPPATIEFE
notes: GMP synthetase of Plasmodium falciparum, EC 6.3.5.2, full-length enzyme of 555 residues: GATase domain 1-236 and ATPPase domain 237-555; also called guanosine 5'-monophosphate synthetase; ligand-free PfGMPS; source: E. coli AT2465 (pQE30PfGMPS), purified (HisTrap, Superdex 200 size exclusion)
[2]
  stoichiometry N: 2

B2: PfGMPS_C89A (glutamine-bound inactive mutant of P. falciparum GMP synthetase) (enzyme)
chain: MEGEEYDKILVLNFGSQYFHLIVKRLNNIKIFSETKDYGVELKDIKDMNIKGVILSGGPYSVTEAGSPHLKKEVFEYFLEKKIPIFGIAYGMQEIAVQMNGEVKKSKTSEYGCTDVNILRNDNINNITYCRNFGDSSSAMDLYSNYKLMNETCCLFENIKSDITTVWMNHNDEVTKIPENFYLVSSSENCLICSIYNKEYNIYGVQYHPEVYESLDGELMFYNFAYNICKCKKQFDPIRYHELELKNIEKYKHDHYVIAAMSGGIDSTVAAAYTHKIFKERFFGIFIDNGLLRKNEAENVYTFLKSTFPDMNITKIDASENFLSNLQGVTDPEQKRKIIGKLFIEEFEKAVNNIDIDINKTFLLQGTLYPDIIESKCSKNLSDTIKTHHNVGGLPKNLKFKLFEPFKYLFKDDVKTLSRELNLPEEITNRHPFPGPGLAIRVIGEINKHKLNILREVDDIFINDLKQYGLYNQISQAFAVLLSSKSVGVRGDARSYDYVCVLRAVKTSSFMTANWYQIPYDILDKITTRILSEVKGVNRILYDVSSKPPATIEFE
SAXS
  stoichiometry N: 2

B3: PfATPPase (isolated ATP pyrophosphatase domain of PfGMPS) (domain or fragment, Plasmodium falciparum, UniProt Q8IJR9 237-555, looked up)
chain: PIRYHELELKNIEKYKHDHYVIAAMSGGIDSTVAAAYTHKIFKERFFGIFIDNGLLRKNEAENVYTFLKSTFPDMNITKIDASENFLSNLQGVTDPEQKRKIIGKLFIEEFEKAVNNIDIDINKTFLLQGTLYPDIIESKCSKNLSDTIKTHHNVGGLPKNLKFKLFEPFKYLFKDDVKTLSRELNLPEEITNRHPFPGPGLAIRVIGEINKHKLNILREVDDIFINDLKQYGLYNQISQAFAVLLSSKSVGVRGDARSYDYVCVLRAVKTSSFMTANWYQIPYDILDKITTRILSEVKGVNRILYDVSSKPPATIEFE
notes: ATPPase domain of Plasmodium falciparum GMP synthetase, residues 237-555; Cloned into pET-21b(+); also called ATPPase domain; source: E. coli BL21(DE3) (pETPfATPPase), purified (60% ammonium sulfate precipitation, CM-Sepharose cation exchange)
Purified protein [3]
  Km: 7000 ± 300 µM
  kcat: 0.155 ± 0.0017 s⁻¹
Purified protein [4]
  Km: 11 ± 4 µM
[5]
  stoichiometry N: 2
